Results as given in publication PMC2845462.

Biological target: FLAG-HA-Twi1p-WT (Tetrahymena thermophila) (UniProt Q8MXZ9)
Test: co-IP

amount co-precipitated after 100 μg/mL RNase A, against the untreated lysate: 60%
Substance: Giw1p (natural protein)
